Reference: PMC4694755 (Molecular Biology of the Cell, 2016)

Biological target: Mouse importin β (mouse, UniProt P70168 1-876)
Assay: SPR

Sequence of Mouse importin β (P70168 whole entry): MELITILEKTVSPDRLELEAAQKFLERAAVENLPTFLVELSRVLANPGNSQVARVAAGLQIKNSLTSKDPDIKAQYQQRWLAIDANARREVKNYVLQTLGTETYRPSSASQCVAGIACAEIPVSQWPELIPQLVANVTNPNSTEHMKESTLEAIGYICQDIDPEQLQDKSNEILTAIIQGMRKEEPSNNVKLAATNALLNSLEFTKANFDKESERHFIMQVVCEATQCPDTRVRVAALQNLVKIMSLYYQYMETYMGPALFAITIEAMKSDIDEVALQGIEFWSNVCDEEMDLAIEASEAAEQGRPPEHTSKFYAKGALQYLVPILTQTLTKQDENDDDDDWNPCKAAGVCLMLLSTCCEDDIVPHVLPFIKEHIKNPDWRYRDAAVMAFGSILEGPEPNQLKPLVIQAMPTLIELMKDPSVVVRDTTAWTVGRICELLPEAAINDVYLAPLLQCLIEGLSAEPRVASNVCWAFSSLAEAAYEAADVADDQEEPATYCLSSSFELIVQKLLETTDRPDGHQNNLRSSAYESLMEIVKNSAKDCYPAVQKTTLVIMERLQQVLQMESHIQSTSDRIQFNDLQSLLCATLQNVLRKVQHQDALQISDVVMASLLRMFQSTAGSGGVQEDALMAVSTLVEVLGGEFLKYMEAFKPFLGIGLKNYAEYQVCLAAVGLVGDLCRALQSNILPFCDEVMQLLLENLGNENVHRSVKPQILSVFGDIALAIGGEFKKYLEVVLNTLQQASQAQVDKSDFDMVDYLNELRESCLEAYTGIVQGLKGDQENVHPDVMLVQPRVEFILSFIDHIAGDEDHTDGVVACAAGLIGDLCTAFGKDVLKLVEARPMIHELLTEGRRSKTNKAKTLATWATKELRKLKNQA

B1: importin β–binding domain of rat importin α (IBB, amino acids 1–66) (domain or fragment)
chain: not shown
**Q.** Which koff does the source give for B1 here?
**A.** 0.00132 s⁻¹

**Q.** What about the kon of the same binder?
**A.** 99400 M⁻¹ s⁻¹
